In patent US20100209400A1, “TAK1-Mediated Regulation of Osteogenesis” (priority 2003, published 2010):

Tests used:
[1] = system: SMAD1 trans-activation potential; test: GAL4 DBD-SMAD1 luciferase trans-activation reporter assay; type: cell-based, human
Description: Reporter assays using the GALA DNA binding domain fused to various forms of SMAD proteins were performed as described (Meersseman, G at al, Mech. Dev, 61: 127-140, 1997). Briefly, 420 nanograms (ng) DNA was transfected/well (24 well-plate seeded with 1×10^5 HEK 293T cells) one day prior to transfection. The DNA mix included a plasmid expressing β-galactosidase under the control of the RSV promoter, for normalization purposes and a reporter plasmid encoding firefly luciferase under the control of 5 GAL4 binding sites upstream of a minimal TATA box (pG5 luc, Promega, Mannheim) and combinations of effector plasmids. The DNA content was normalized with empty vector.
Cells were harvested and lysed. β-Galactosidase (β-gal) activity was measured via the luminescent β-galactosidase kit II (Clontech, Palo Alto, Calif.), and luciferase activity via the luciferase assay system (Promega, Mannheim). All results are expressed as luciferase activity normalized with β-gal values (“relative luciferase activities”). Reporter assays with the SMAD1 DNA binding element SBE-9 (GCCG×9) (Kusanagi K et al, Mol Biol Cell 11: 555-565, 2000) cloned into pCAT5 vector (Boshart M et al, Gene 110: 129-130, 1992) were performed similarly except that cells were lysed in CAT lysis buffer. CAT enzyme was measured via CAT ELISA assay and β-gal via chemiluminescent β-gal reporter gene assay (Roche, Mannheim).
To determine whether MH2 domains involved in TAK1 binding mediated inhibition of R-SMAD biological activity, a reporter assay measuring SMAD trans-activation potential was performed. Full-length SMAD1 and deletion mutants thereof were fused in-frame with the GAL4-DNA binding domain, and SMAD trans-activation potential was measured via UAS-driven-luciferase reporter expression (FIGS. 6B & C). The trans-activating potential of SMAD1/GAL4 hybrid molecules was measured with increasing amounts of TAK1 variants. […]

[2] = system: nucleo-cytoplasmic shuttling of SMAD1 and SMAD3; test: Immunofluorescence of Flag-tagged SMAD1 and SMAD3 localisation in HEK293T cells; type: cell-based, human; details: Flag-tagged SMADs
Description: HEK293T cells were seeded at 2×10^5 cells/well into poly-D-lysine coated 6-well plates one day prior to transfection. Transient transfections were conducted with Fugene 6. After 30 hours, the cells were fixed with 4% paraformaldehyde in phosphate buffered saline (PBS) for 10 minutes, washed twice with PBS, and permeabilized with methanol followed by 0.5% Triton-X 100 in PBS. After washing with 0.1% Triton-X 100 in PBS (PBT), blocking was performed with 5% FCS in PBT for 1 hour at room temperature. Following another PBT wash, tagged proteins were incubated with the appropriate primary antibodies. Detection was accomplished via goat anti mouse-Alexa 488 (A-11001, Molecular Probes) (5 μg/ml) antibody for murine primary antibodies.
To determine whether TAK1-dependent interference with SMAD activity affected subcellular distribution of SMAD, immunofluorescence was used to localize flag-tagged SMAD1 or SMAD3 expressed in HEK293T cells in the absence or presence of constitutively active receptors (FIG. 7).

[3] = system: C3H10T½-BMP2 cells; test: Histological analysis and alkaline phosphatase staining of C3H10T½-BMP2 cells; type: cell-based, murine
Description: Murine C3H10T½ progenitor cells were cultured in high-glucose DMEM containing 10% fetal calf serum, as described (Ahrens Met al, DNA Cell Biol, 12: 871-880, 1993). Cells were stably transfected with expression plasmids encoding wt TAK1, dominant-negative (dn) or constitutively active (ca) TAK1 in pMT7T3-f1 using DOSPER™ according to the manufacturer's protocol (Roche, Mannheim) and a selection plasmid conferring puromycin resistance (pBSpacDp: parental C3H10T½ cells) or G418-resistance (pAG60: BMP2-expressing C3H10T½ cells). Individual clones were picked, propagated, and tested for recombinant expression of TAK1-variants by RT-PCR using a vector-specific and a gene-specific primer. Control cell lines (empty to expression vector) were established at the same time. Cells were plated at a density of 5,000 cells/cm^2. After reaching confluence (arbitrarily termed day 0) ascorbic acid (50 microgram/milliliter (μg/ml)) and b-glycerophosphate (10 millimolar (mM)) were added.
Proteoglycan-secreting chondrocytes were identified by staining with Alcian Blue at pH 2.5 (Alcian Blue 8GS, Roth, Karlsruhe).
Osteoblast formation was evaluated as a measure of TAK1 influence on osteo-/chondrogenic differentiation potential. C3H10T½-BMP2 cells co-expressing TAK1 and its molecular variants were assessed histologically for alkaline phosphatase (ALP) activity (FIG. 8C), which is indicative of osteoblast differentiation.

B1: TAK1dn: dominant-negative TAK1 mutant (K63W), kinase inactive (protein)
chain: MSTASAASSSSSSSASEMIEAPSQVLNFEEIDYKEIEVEEVVGRGAFGVVCKAKWRAKDVAIWQIESESERKAFIVELRQLSRVNHPNIVKLYGACLNPVCLVMEYAEGGSLYNVLHGAEPLPYYTAAHAMSWCLQCSQGVAYLHSMQPKALIHRDLKPPNLLLVAGGTVLKICDFGTACDIQTHMTNNKGSAAWMAPEVFEGSNYSEKCDVFSWGIILWEVITRRKPFDEIGGPAFRIMWAVHNGTRPPLIKNLPKPIESLMTRCWSKDPSQRPSMEEIVKIMTHLMRYFPGADEPLQYPCQYSDEGQSNSATSTGSFMDIASTNTSNKSDTNMEQVPATNDTIKRLESKLLKNQAKQQSESGRLSLGASRGSSVESLPPTSEGKRMSADMSEIEARIVATAGNGQPRRRSIQDLTVTGTEPGQVSSRSSSPSVRMITTSGPTSEKPARSHPWTPDDSTDTNGSDNSIPMAYLTLDHQLQPLAPCPNSKESMAVFEQHCKMAQEYMKVQTEIALLLQRKQELVAELDQDEKDQQNTSRLVQEHKKLLDENKSLSTYYQQCKKQLEVIRSQQQKRQGTS
modifications: left off: small tags and cut ends
[1]; FIG. 6C
  trans-activating potential of GAL4-SMAD1-MH2 and GAL4-SMAD1-L+MH2 constructs: no effect
[1]; higher amounts of TAK1dn
  trans-activation activity after sharp drop from elevated value: roughly 70%
[1]; low concentrations of TAK1dn
  increase of SMAD trans-activation: 35%
[2]
  subcellular localisation of SMAD1 and SMAD3: predominantly in the nucleus
[3]; after confluence
  growth phenotype of C3H10T½-BMP2 cells expressing the TAK1 variant: Multiple layer growth
[3]; compared to C3H10T½-BMP2 cells, 10 days post-confluence
  osteoblast-like cell formation / ALP activity: enhanced ALP activity
